From publication PMC12281484, “Targeted O‑GlcNAcylation of CK2α Triggers Its Ubiquitin-Proteasome Degradation and Alters Downstream Phosphorylation” (ACS Chemical Biology, 2025)

Biological target: T1, HTN-CK2α^WT with O-GlcNAcylation at Ser347 induced by OGTAC-1 (cells co-expressing fOGT) (UniProt P68400 1-391, O-GlcNAc at Ser347 (level increased by about 2-fold with 100 nM OGTAC-1 at 8 h))
T1 construct: casein kinase II subunit α (CK2α); Same construct as m1; only a part of the copies is modified (the level is raised over the baseline, not complete); also called HTN-CK2α (OGTAC-1 treated); CK2α with higher O-GlcNAcylation level; source: transfected cells co-expressing fOGT, treated with OGTAC-1 for 8 h, in lysate; not shown: HaloTag, N-terminal, kept
T1 sequence (P68400 whole entry): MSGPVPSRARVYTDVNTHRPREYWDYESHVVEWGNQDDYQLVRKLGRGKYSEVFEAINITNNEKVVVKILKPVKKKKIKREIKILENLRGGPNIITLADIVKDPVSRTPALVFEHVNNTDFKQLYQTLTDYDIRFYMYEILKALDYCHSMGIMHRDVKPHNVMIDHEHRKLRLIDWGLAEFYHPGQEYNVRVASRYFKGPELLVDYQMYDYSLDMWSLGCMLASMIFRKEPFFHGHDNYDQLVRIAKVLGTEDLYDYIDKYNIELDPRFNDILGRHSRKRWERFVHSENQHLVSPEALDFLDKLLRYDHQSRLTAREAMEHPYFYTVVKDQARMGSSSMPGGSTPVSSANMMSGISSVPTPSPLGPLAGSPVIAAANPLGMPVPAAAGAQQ
Experiment: co-IP; Flag-CRBN, HTN-CK2α (WT or S347A) and fOGT (WT or K852A) overexpressed in cells; DMSO or 100 nM OGTAC-1 for 8 h; HaloTrap IP; anti-FlagTag and anti-HA-Tag blots
Settings: partners not purified

fold change of co-IPed CRBN over the DMSO treatment: ~2 fold
B1: Flag-CRBN (cereblon) (natural protein, UniProt Q96SW2 1-442, looked up)
chain: MAGEGDQQDAAHNMGNHLPLLPAESEEEDEMEVEDQDSKEAKKPNIINFDTSLPTSHTYLGADMEEFHGRTLHDDDSCQVIPVLPQVMMILIPGQTLPLQLFHPQEVSMVRNLIQKDRTFAVLAYSNVQEREAQFGTTAEIYAYREEQDFGIEIVKVKAIGRQRFKVLELRTQSDGIQQAKVQILPECVLPSTMSAVQLESLNKCQIFPSKPVSREDQCSYKWWQKYQKRKFHCANLTSWPRWLYSLYDAETLMDRIKKQLREWDENLKDDSLPSNPIDFSYRVAACLPIDDVLRIQLLKIGSAIQRLRCELDIMNKCTSLCCKQCQETEITTKNEIFSLSLCGPMAAYVNPHGYVHETLTVYKACNLNLIGRPSTEHSWFPGYAWTVAQCKICASHIGWKFTATKKDMSPQKFWGLTRSALLPTIPDTEDEISPDKVILCL
notes: cereblon (CRBN), plasmid bought from Addgene; source: co-IP methods: HeLa or HEK293T
